From the supplement of paper PMC11780869

system: Bacillus subtilis; assay: cleaved RNA product abundance (RNA/gDNA barcode ratio) relative to median wild-type variant (ratio to wild type); higher = more accumulation of the downstream cleavage product; conditions: experiment (reporter, strain, medium): exp 2b: truncated aprE reporter, strain BJT200; cleavage site: cggR-gapA (positions -7 to +36 mutated)
Summary of the method: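 Cleaved product abundance was measured with barcoded reporter mRNAs (truncated aprE or tetM) carrying mutagenized RNase Y cleavage-site windows in the B. subtilis chromosome. Cultures in LB at 37°C grew from OD600 0.0003 to 0.3. Gel-selected cleaved RNA was reverse transcribed and barcode-sequenced with genomic DNA barcodes, and the RNA:gDNA barcode ratio per construct was scaled to the median construct bearing the unmutated site.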

Sequence | cleaved RNA product abundance
ACAGACGAAGGAGCCGCAAAGAAGTTATTAAGGCATTAATAATCCCTCAATATAAATATCTCTCACTTATTTAAA | 0.0847
ACAGACGAAGGAGCCGCAAAGTAGTTATTAAGGCATGAATAATCCCTCAATATAAATATCTCTCACTTATTTAAA | 0.101
ACAGACGAAGGAGCCGCAATGAAGTTATTAAGGGATGAATACTCCCTCAATATAAATATCTCTCACTTATTTAAA | 0.379
ACAGACGAAGGAGCCGCAAAGAAGTTATTAAGGGATGAATAAGCCCTCAATATAAATATCTCTCACTTATTTAAA | 0.683
ACAGACGAAGGAGCCGCAAAGAAGTTATTAAGGGATCAATAATCCCTTAATATAAATATCTCTCACTTATTTAAA | 1.02
ACAGACGAAGGAGCCGCAAAGAAGTTATTAAAGGATGAATAATCCCTCAATTTAAATATCTCTCACTTATTTAAA | 0.088
ACAGACGAAGGAGCCGCAAAGAAGTTATTAAGGTACGAATAATCCCTCAATATAAATATCTCTCACTTATTTAAA | 0.0971
ACAGACGAAGGAGCCGCAAAGAAGTTACTAAGGGATGAATAATCTCTCAATATAAATATCTCTCACTTATTTAAA | 0.149
ACAGACGAAGGAGCCGCAAAGAAGTTATTAATGGATTAATAATCCCTCAATATAAATATCTCTCACTTATTTAAA | 0.149

same assay, conditions: experiment (reporter, strain, medium): exp 4a: truncated aprE reporter, strain BJT201 with 2% xylose (RNase J1 expressed); cleavage site: cggR-gapA (positions -7 to +36 mutated)

Sequence | cleaved RNA product abundance
ACAGACGAAGGAGCCGCAAAGAAGTTATTAAGGGATGCATAATCCCTCAATAAAAATATCTCTCACTTATTTAAA | 0.139
ACAGACGAAGGAGCCGCAAAGAAGTTATTAAGGGATGAATATTCCCTCATTATAAATATCTCTCACTTATTTAAA | 0.316
ACAGACGAAGGAGCCGCAAAGAAGTTATTAAGGCATTAATAATCCCTCAATATAAATATCTCTCACTTATTTAAA | 0.108
ACAGACGAAGGAGCCGCAAAGAAGTTATTAAGCGATGAATAATCCCTGAATATAAATATCTCTCACTTATTTAAA | 0.072
ACAGACGAAGGAGCCGCAACGAAGTTATTAAAGGATGAATAATCCCTCAATATAAATATCTCTCACTTATTTAAA | 0.213
ACAGACGAAGGAGCCGCAAAGAAGTTATTAAGGTATGAATAATCGCTCAATATAAATATCTCTCACTTATTTAAA | 0.0909
ACAGACGAAGGAGCCGCAAAGAAGTGATTAAGGGATGAGTAATCCCTCAATATAAATATCTCTCACTTATTTAAA | 0.285
ACAGACGAAGGAGCCGCAAAGAAGTTATTAAGGAATGAATAATCCCTCAATATAAGTATCTCTCACTTATTTAAA | 0.0312
ACAGACGAAGGAGCCGCAAAGTAGTTATTAAGGCATGAATAATCCCTCAATATAAATATCTCTCACTTATTTAAA | 0.124
ACAGACGAAGGAGCCGCTAAGAAGTTATTAAGGGATGAATAACCCCTCAATATAAATATCTCTCACTTATTTAAA | 0.437
ACAGACGAAGGAGCCGCAAAGAAGTTATTAATGGGTGAATAATCCCTCAATATAAATATCTCTCACTTATTTAAA | 0.188
ACAGACGAAGGAGCCGCAATGAAGTTATTAAGGGATGAATAATCCATCAATATAAATATCTCTCACTTATTTAAA | 0.251
ACAGACGAAGGAGCCGCAAAGAATTTATTAAGGGATGAATAATCCCTCAATATACATATCTCTCACTTATTTAAA | 0.606
ACAGACGAAGGAGCCGCAAAGAAGTTATTAAGGGATGAATAATCACTCAATATAAAAATCTCTCACTTATTTAAA | 0.136
ACAGACGAAGGAGCCGCAAAGAAGTTATTAAGGGATGAATAAGCCCTCAATATAAATATCTCTCACTTATTTAAA | 0.634
ACAGACGAAGGAGCCGCAAAGAAGTTATTAAGGGATGAATAATTCCGCAATATAAATATCTCTCACTTATTTAAA | 0.188
ACAGACGAAGGAGCCGCAAAGAAGTTATAAAGGGATGAATAATCCCTCAAAATAAATATCTCTCACTTATTTAAA | 0.292
ACAGACGAAGGAGCCGCAAAGAAGTTATTAAGGGATCAATAATCCCTTAATATAAATATCTCTCACTTATTTAAA | 0.486
ACAGACGAAGGAGCCGCAAAGAAGTTATTAACGGATGAATAATCCCTCAATATAAATGTCTCTCACTTATTTAAA | 0.0543
ACAGACGAAGGAGCCGCAAAGAAGTTATTAAGCGATTAATAATCCCTCAACATAAATATCTCTCACTTATTTAAA | 0.0653
ACAGACGAAGGAGCCGCAAAGAACTGATTAAGGGATGAATAATCCCTCAATATAAATATCTCTCACTTATTTAAA | 0.238
ACAGACGAAGGAGCCGCAAAGAAGTTATTAATGGATGAATAATCCCTCAATATAGATATCTCTCACTTATTTAAA | 0.215
ACAGACGAAGGAGCCGCAAAGAAGTTATTAAAGGATGAATAATCCCTCAATTTAAATATCTCTCACTTATTTAAA | 0.0949
ACAGACGAAGGAGCCGCAAAAACGTTATTAAGGGATGAATAATCCCTCAATATAAATATCTCTCACTTATTTAAA | 1.04
ACAGACGAAGGAGCCGCAAAGAAGTTATTAACGGATGAATAATCCTTCAATATAAATATCTCTCACTTATTTAAA | 0.223
ACAGACGAAGGAGCCGCAAAGAAGTTTTTAAGGGATGAAAAATCCCTCAATATAAATATCTCTCACTTATTTAAA | 0.293
